Where a chain is given by its changes, count along the chain named. Names may count otherwise.
Key:
[1] = biological target: the molecule itself; assay: 15N-TROSY HSQC NMR (self-association of the RING domain); sample concentration is not printed on the sheet
Experimental: NMR spectroscopy. All NMR experiments were performed in 50 mM Sodium Phosphate (pH 7.5), 150 mM NaCl, 1 mM TCEP, 10% (v/v) D₂O, 0.04% (w/v) NaN₃, and the data collected at 298K on a Bruker Avance 700-MHz spectrometer equipped with a cryoprobe. Backbone assignments were carried out using standard TROSY triple resonance NMR experiments (HNCO, HN(CA)CO, HN(CO)CA, HNCA, HNCACB, and HN(CO)CACB). Protein concentrations for each experiment are shown in the corresponding figures or noted in figure legends. The NMR data were processed using NMRPipe and spectra evaluated using NMRFAM-Sparky.

[2] = biological target: the molecule itself; assay: sedimentation equilibrium analytical ultracentrifugation, monomer-dimer self-association model
Experimental: Analytical Ultracentrifugation. Sedimentation velocity experiments were performed with a Beckman Optima XL-I analytical ultracentrifuge (Beckman Coulter, Indianapolis, IN) equipped with a 4-hole AnTi-60 rotor and 2-channel centerpiece cells. Samples were in a buffer containing 50 mM Tris (pH 7.5), 150 mM NaCl, and 1 mM TCEP. Sedimentation velocity experiments were carried out at 20° C. and data collection performed in the intensity mode at 280 nm. […] All c(S) distributions were calculated with fitted frictional ratios (f/f₀) and meniscus positions were all fitted with a maximum entropy regularization cutoff of 0.95. Sedimentation equilibrium experiments were carried out using six-channel centerpieces, each chamber containing 110 μL samples. Equilibrium experiments were conducted at 20° C. and collection of data performed in the intensity mode at 280 nm and 230 nm. […] Equilibrium distributions were fitted to a monomer-dimer self-association model.

B1: R1-I77R, RING domain construct of rhesus monkey TRIM5alpha with the I77R mutation (enzyme, UniProt Q0PF16 2-90, looked up)
chain: ASGILLNVKEEVTCPICLELLTEPLSLHCGHSFCQACITANHKKSMLYKEGERSCPVCRISYQPENIQPNRHVANRVEKLREVKLSPEE
notes: range 2-90; Tags were removed by TEV protease
binding result [1]: no binding

B2: R1-WT, monomeric RING domain construct of rhesus monkey TRIM5alpha (enzyme, UniProt Q0PF16 2-90, looked up)
chain: B1 chain with R76I
notes: range 2-90; Expressed with N-terminal 6His-GB1-TEV tags that were removed by TEV protease; also called isolated RING monomer
Kd [2]: ~60 µM

From patent publication US20260185137A1 (University of Texas, published 2026)
